Experimental data as given in article PMC3242506 (Biochemical Journal, 2011).

B1: first four TM regions of human TPC1 (TPC1^1–225) (domain or fragment)
chain: not shown
B2: domain I of human TPC1 (TPC1^1–347) (domain or fragment)
chain: not shown
B3: domain II of human TPC1 (TPC1^427–816) (domain or fragment)
chain: not shown
modifications: N-glycosylated (bands sensitive to PNGase F)
B4: domain II of human TPC2 (TPC2^422–752) (domain or fragment, UniProt Q8NHX9 422-752, looked up)
chain: LQSAQFLFGHYYFDYLGNLIALANLVSICVFLVLDADVLPAERDDFILGILNCVFIVYYLLEMLLKVFALGLRGYLSYPSNVFDGLLTVVLLVLEISTLAVYRLPHPGWRPEMVGLLSLWDMTRMLNMLIVFRFLRIIPSMKLMAVVASTVLGLVQNMRAFGGILVVVYYVFAIIGINLFRGVIVALPGNSSLAPANGSAPCGSFEQLEYWANNFDDFAAALVTLWNLMVVNNWQVFLDAYRRYSGPWSKIYFVLWWLVSSVIWVNLFLALILENFLHKWDPRSHLQPLAGTPEATYQMTVELLFRDILEEPGEDELTERLSQHPHLWLCR
B5: domain I of human TPC2 (TPC2^1–339) (domain or fragment, UniProt Q8NHX9 1-339, looked up)
chain: MAEPQAESEPLLGGARGGGGDWPAGLTTYRSIQVGPGAAARWDLCIDQAVVFIEDAIQYRSINHRVDASSMWLYRRYYSNVCQRTLSFTIFLILFLAFIETPSSLTSTADVRYRAAPWEPPCGLTESVEVLCLLVFAADLSVKGYLFGWAHFQKNLWLLGYLVVLVVSLVDWTVSLSLVCHEPLRIRRLLRPFFLLQNSSMMKKTLKCIRWSLPEMASVGLLLAIHLCLFTMFGMLLFAGGKQDDGQDRERLTYFQNLPESLTSLLVLLTTANNPDVMIPAYSKNRAYAIFFIVFTVIGSLFLMNLLTAIIYSQFRGYLMKSLQTSLFRRRLGTRAAFE

Experiments:
cross-linking [1] = biological target: the molecule itself; assay: cross-linking
cross-linking [2] = biological target: the molecule itself; assay: cross-linking; remark: listed apart in the source
[3] = biological target: the molecule itself; assay: SDS/PAGE and Western blot without cross-linker

Protein	stoichiometry N (cross-linking [1])	stoichiometry N (cross-linking [2])	stoichiometry N [3]
B1	2	–	–
B2	–	2.1	–
B3	–	2.2	2
B4	–	2.2	–
B5	–	2.3	2
